This test can be described thus: Activity of the enzyme expressed from the sadB gene in cell-free extracts. The class given is biochemical, Achromobacter xylosoxidans. To be noted: cell-free extracts of Mach1/pTrc99a::sadB, isobutyraldehyde as the standard. On the procedure: The sadB coding region was then cloned into the vector pTrc99a (Amann et al., Gene 69: 301-315, 1988). The pCR4Blunt::sadB was digested with EcoRI, releasing the sadB fragment, which was ligated with EcoRI-digested pTrc99a to generate pTrc99a::sadB. This plasmid was transformed into E. coli Mach 1 cells and the resulting transformant was named Mach1/pTrc99a::sadB. The activity of the enzyme expressed from the sadB gene in these cells was determined to be 3.5 mmol/min/mg protein in cell-free extracts when analyzed using isobutyraldehyde as the standard.

B1: sadB: butanol dehydrogenase from Achromobacter xylosoxidans (protein SEQ ID NO:10), expressed in E. coli Mach1/pTrc99a::sadB (protein)
chain: MKALVYHGDHKISLEDKPKPTLQKPTDVVVRVLKTTICGTDLGIYKGKNPEVADGRILGHEGVGVIEEVGESVTQFKKGDKVLISCVTSCGSCDYCKKQLYSHCRDGGWILGYMIDGVQAEYVRIPHADNSLYKIPQTIDDEIAVLLSDILPTGHEIGVQYGNVQPGDAVAIVGAGPVGMSVLLTAQFYSPSTIIVIDMDENRLQLAKELGATHTINSGTENVVEAVHRIAAEGVDVAIEAVGIPATWDICQEIVKPGAHIANVGVHGVKVDFEIQKLWIKNLTITTGLVNTNTTPMLMKVASTDKLPLKKMITHRFELAEIEHAYQVFLNGAKEKAMKIILSNAGAA
modifications: Achromobacter xylosoxidans
B1: the “activity of the enzyme expressed from the sadB gene” value worked out at 3.5 mmol/min/mg protein.

For the origin of these results see patent US8828695B2, “Method for producing butanol using two-phase extractive fermentation” (Butamax Advanced Biofuels LLC, priority 2008, dated 2014).
